Drawing on paper PMC6526389, this text covers IC50 for one substance.

Experiment [1] deals with HA-tagged human CXCR1 expressed on L1.2 cells (human) (UniProt P25024). Description: radioligand binding; competition of increasing concentrations of unlabeled CXCL8 (pre-incubated with H292 or H575 culture supernatant, then Pefabloc SC) against [125I]-CXCL8 on L1.2 cells expressing HA-CXCR1 or HA-CXCR2; n = 6.
Experiment [2] has as its target HA-tagged human CXCR2 expressed on L1.2 cells (human) (UniProt P25025). Described as above.

As a reminder, the IC50 is the point on the concentration scale where inhibition reaches its midpoint. Low readings indicate greater potency in that assay, high ones weaker potency in that assay.

With “Recombinant human CXCL8, 72 aa form (CXCL8^1–72), intact (incubated with control H575 supernatant) (ligand)”, the values for the IC50 in experiment [1] and in experiment [2] were 8.1 nM and 8.7 nM, respectively.
